Columns and labels:
Assay in all cases: BLI
[1] = target: RSC3
[2] = target: ZM109_FL
[3] = target: YU2_FL

| Binder | Kd [1] | Kd [2] | Kd [3] |
| --- | --- | --- | --- |
| G54A (heavy chain) (antibody, V domains shown) VH: QVQLVQSGGQMKKPGESMRISCRASGYEFIDCTLNWIRLAPGKRPEWMGWLKPRAGAVNYARPLQGRVTMTRDVYSDTAFLELRSLTVDDTAVYFCTRGKNCDYNWDFEHWGRGTPVIVSS VL: EIVLTQSPGTLSLSPGETAIISCRTSQYGSLAWYQQRPGQAPRLVIYSGSTRAAGIPDRFSGSRWGPDYNLTISNLESGDFGVYYCQQYEFFGQGTKVQVDI | 2.64 nM | 76 nM | 6.51 nM |
| V3A (light chain) (antibody, V domains shown) VH: QVQLVQSGGQMKKPGESMRISCRASGYEFIDCTLNWIRLAPGKRPEWMGWLKPRGGAVNYARPLQGRVTMTRDVYSDTAFLELRSLTVDDTAVYFCTRGKNCDYNWDFEHWGRGTPVIVSS VL: EIALTQSPGTLSLSPGETAIISCRTSQYGSLAWYQQRPGQAPRLVIYSGSTRAAGIPDRFSGSRWGPDYNLTISNLESGDFGVYYCQQYEFFGQGTKVQVDI | 6.09 nM | 54.7 nM | 27.6 nM |

Reference: patent US20140322163A1 (published 2014)
